Tests used:
[1] = biological target: recombinant PA32 protein (Bacillus anthracis); test: SPR, PA32 coupled to CM5 chip, single scFv concentration
[2] = biological target: EGFP-PA32 fusion protein (Bacillus anthracis); test: SPR (BIAcore), […], single concentration
[3] = biological target: Bacillus anthracis protective antigen PA83 (Bacillus anthracis, UniProt P13423 30-764); test: SPR (BIACORE), PA83 on CM5 chip, 4 concentrations of monomeric scFv

B1: scFv#12 (scFv)
scFv: QVQLVESGGGVVQPGRSLRLSCAASGFTFNNHAMEWVRQAPGKGLEWVSGINWDGGSTGYADSVKGRFAVSRDNAKNSLYLQINSLRDEDTAVYYCARANWGRIDYWGQGTLVTVSSGGGGSGGGGSGGGGSSELTQDPAVSVALGQTVRITCQGDSLRRYYASWYQQKPGQAPVLVIYGKNNRPSGIPDRFSGSSSGNTASLTITGAQAEDEADYYCHSRDSSGTHLRVFGGGTKLTVLGAAAEQKLISEEDLNGAAHHHHH
B1: no binding [1]; no binding [2].

B2: scFv#1 (scFv)
scFv: QVNLRESGGGLVQPGGSLRLSCAASGFTFSSYAMSWVRQAPGKGLEWVSAISSNGGSTYYADSVKGRFTISRDNSKNTLYLQMSSLRAEDTALYYCARERGAAAASDYWGPGTLVTVSSGGGGSSGGGSGGGGSQSVLTQPPSASGTPGQRVTISCSGSSSNIGSNSVNWYQQLPGTAPKLLIYSNSNRPSGVPDRFSGSKSGTSASLAISGLRSEDEADYYCAAWDDSLSGRVFGGGTKLTVLGAAAEQKLISEEDLNGAAHHHHHH
B2 was tested, and the Kd [3] was 190 nM.

B3: scFv#4 (scFv)
scFv: QVQLVESGGGLVQPGGSLRLSCSASGFTFSSYAMHWVRQAPGKGLEYVSAISSNGGSTYYADSVKGRFTISRDNSKNTLYLQMSSLRAEDTAVYYCVKDLHVGRLQLGVFDYWGQGTLVTVSSGGGGSGGGGSGGGGSSELTQDPAVSVALGQTVRITCQGDSLRSYYASWYQQKPGQAPVLVIYGKNNRPSGIPDRFSGSSSGNTASLTITGAQAEDEADYYCNSRDSSSTHRGVFGGGTKLTVLGAAAEQKLISEEDLNGAAHHHHHH
B3 showed a Kd [3] of 310 nM.

B4: scFv#24 (scFv)
scFv: QVQLVESGGGLVQPGGSLRLSCSASGFTFSSYAMHWVRQAPGKGLEYVSAISSNGGSTYYADSVKGRFTISRDNSKNTLYLQMSSLRAEDTAVYYCVKDLHVGRLQLGVFDYWGQGTLVTVSSGGGGSGGGGSGGGGSSELTQDPAVSVAVGQTVKITCQGDSLRSYYATWYQQKPGQAPVLVIYGKNSRPSGIPDRFSGSSSGTTASFTITGAQAEDEADYYCNSRDSTNNQLFGGGTKLTVLGAAAEQKLISEEDLNGAAHHHHH
With B4 the Kd [3] was 430 nM.

Reference: patent publication US20040014707A1 (published 2004)
